Data as given in patent publication US20190177418A1.

Legend:
[1] = target: human TrkB (tropomyosin receptor kinase B) expressed on CHO reporter cells (human) (UniProt Q16620); experiment: cell-based or functional assay
[2] = target: mouse TrkB, endogenous on mouse cortical neurons and mouse embryonic stem cell line (mouse) (UniProt P15209); experiment: cell-based or functional assay
Chain of UniProt P15209 (P15209 32-821): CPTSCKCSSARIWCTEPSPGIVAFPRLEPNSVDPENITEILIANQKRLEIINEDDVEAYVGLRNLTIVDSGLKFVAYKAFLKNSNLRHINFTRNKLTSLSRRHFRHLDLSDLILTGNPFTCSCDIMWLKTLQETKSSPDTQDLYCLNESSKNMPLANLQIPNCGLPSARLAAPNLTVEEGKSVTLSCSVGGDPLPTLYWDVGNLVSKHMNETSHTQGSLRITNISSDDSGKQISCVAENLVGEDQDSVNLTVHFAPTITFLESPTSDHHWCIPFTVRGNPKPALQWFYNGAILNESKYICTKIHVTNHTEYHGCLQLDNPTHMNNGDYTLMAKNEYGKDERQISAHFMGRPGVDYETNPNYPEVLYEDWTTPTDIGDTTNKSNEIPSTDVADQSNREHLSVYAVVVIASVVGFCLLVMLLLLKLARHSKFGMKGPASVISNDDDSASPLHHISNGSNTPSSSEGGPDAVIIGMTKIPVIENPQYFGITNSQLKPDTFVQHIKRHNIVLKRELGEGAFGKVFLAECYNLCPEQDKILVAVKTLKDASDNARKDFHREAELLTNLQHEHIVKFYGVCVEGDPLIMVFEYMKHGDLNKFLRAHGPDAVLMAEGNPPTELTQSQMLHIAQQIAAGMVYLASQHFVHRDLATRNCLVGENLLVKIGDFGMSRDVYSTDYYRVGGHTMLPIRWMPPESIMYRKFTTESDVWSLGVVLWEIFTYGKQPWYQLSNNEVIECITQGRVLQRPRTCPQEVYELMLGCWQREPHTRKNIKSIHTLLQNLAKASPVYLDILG

Chain of UniProt Q16620 (Q16620 32-822): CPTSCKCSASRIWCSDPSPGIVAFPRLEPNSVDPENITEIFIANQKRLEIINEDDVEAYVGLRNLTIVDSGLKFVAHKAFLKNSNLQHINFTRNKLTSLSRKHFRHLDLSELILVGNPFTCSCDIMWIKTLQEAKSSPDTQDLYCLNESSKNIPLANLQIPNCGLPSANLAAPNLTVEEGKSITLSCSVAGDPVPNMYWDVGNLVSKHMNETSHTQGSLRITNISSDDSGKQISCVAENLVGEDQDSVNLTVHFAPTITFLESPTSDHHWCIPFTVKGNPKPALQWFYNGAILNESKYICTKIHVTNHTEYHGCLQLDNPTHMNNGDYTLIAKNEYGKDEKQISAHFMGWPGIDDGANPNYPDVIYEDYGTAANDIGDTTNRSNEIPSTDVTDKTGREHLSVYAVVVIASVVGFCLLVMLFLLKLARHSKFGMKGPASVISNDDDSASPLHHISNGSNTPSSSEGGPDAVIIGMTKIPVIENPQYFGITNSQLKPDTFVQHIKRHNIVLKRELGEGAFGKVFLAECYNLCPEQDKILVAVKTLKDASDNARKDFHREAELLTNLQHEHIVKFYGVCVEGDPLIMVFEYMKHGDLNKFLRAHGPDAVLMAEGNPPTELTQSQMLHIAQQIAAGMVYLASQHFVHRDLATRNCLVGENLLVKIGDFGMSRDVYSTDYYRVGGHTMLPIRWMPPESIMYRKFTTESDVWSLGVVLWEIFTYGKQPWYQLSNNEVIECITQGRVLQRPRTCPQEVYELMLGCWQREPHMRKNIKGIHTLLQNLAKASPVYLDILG

“brain derived neurotrophic factor (BDNF) (from UniProt P23560 129-247) (ligand)” gave a signaling in human TrkB reporter cell [1] of 2 nM and a TrkB phosphorylation in mouse embryonic stem cell line [2] of 2 nM.
